Experiments:
[1] = clinical, literature, cited from earlier work
[2] = cited from earlier work
[3] = biological target: hHER3 (Homo sapiens, UniProt P21860); assay: BLI binding to HER3 in absence of NRG1 ('closed' conformation)
Method: (§1) In further experiments, anti-HER3 antibodies were analysed in order to determine the affinity of binding to human HER3 in the context of a human HER3:human NRG1 complex (that is, HER3 provided in the ligand-bound, ‘open’ conformation), as compared to the affinity of binding to human HER3 in the absence of NRG1 complex (that is, HER3 provided in the unbound, ‘closed’ conformation).
(§2) Binding of anti-HER3 antibodies to human HER3 was evaluated by BLI. Briefly, anti-Human IgG Capture (AHC) sensors (ForteBio) were loaded with anti-HER3 IgG antibodies (25 nM). Kinetic measurements were performed in absence or presence of NRG1. NRG1 was used at 1:1 molar ratio with HER3 wherein the complex was allowed to form at RT for 2 h. His-tagged human HER3 or HER3-NRG1 complexes were loaded to antibody coated AHC sensors at different concentrations for 120 s, followed by a 120 s dissociation time. All measurements were performed at 25° C. with agitation at 1000 rpm. Sensorgrams were referenced for buffer effects and then analyzed using the Octet QK384-software (ForteBio). Kinetic responses were globally fitted using a one-site binding model to obtain values for association (Kon), dissociation (Koff) rate constants and the equilibrium dissociation constant (KD).

[4] = test system: HEK293 HER3, HCC95, N87 and OVCAR8 cells; assay: Antibody internalisation, pHrodo imaging; assay type: cell-based, human; settings: 24 hours
Method: Briefly, 100,000 HEK293 cells engineered to express HER3, HCC95, N87 or OVCAR8 cells were seeded in wells of 96-well tissue culture plates and cultured overnight at 37° C. in 5% CO2. […] The cells in culture were imaged every 30 min for 24 hours, in 4 different fields of each well. The maximum signal intensity in the FITC channel of each field was quantified at 24 hours.

[5] = biological target: T1, human HER3 (HEK293 HER3 O/E cells) (Homo sapiens, UniProt P21860); assay: Cell surface antigen-binding by flow cytometry
T1 construct: expressed in transfected cells; host or cells: HEK293
Method: The cells were washed thrice with FACS buffer (PBS with 5 mM EDTA and 0.5% BSA) and resuspended in FITC-conjugated anti-FC antibody (Invitrogen, USA) for 40 min at 2-8° C. Cells were washed again and resuspended in 200 μL of FACS flow buffer (PBS with 5 mM EDTA) for flow cytometric analysis using MACSQuant 10 (Miltenyi Biotec, Germany). After acquisition, all raw data were analyzed using Flowlogic software. Cells were gated using forward and side scatter profile percentage of positive cells was determined for native and overexpressing cell populations.
The cells were washed with buffer (PBS with 2 mM EDTA and 0.5% BSA) and resuspended in FITC-conjugated anti-FC antibody (Invitrogen, USA) at 10 μg/ml for 20 min at 4° C. Cells were washed again and resuspended in 200 μL of FACS flow buffer (PBS with 5 mM EDTA) for flow cytometric analysis using MACSQuant 10 (Miltenyi Biotec, Germany). Unstained WT and transfected HEK293 cells were included in the analysis as negative controls. After acquisition, all raw data were analyzed using Flowlogic software. Cells were gated using forward and side scatter profile percentage of positive cells was determined for native and overexpressing cell populations.

[6] = biological target: human HER3:human NRG1 complex (Homo sapiens, UniProt P21860); assay: BLI binding to HER3-NRG1 complex ('open' conformation); settings: presence of NRG1 (1:1 molar ratio)
Method: as §1, §2

| Substance | Dose where Saturating PK was observed [1] | T½ (terminal half life) [1] [h] | Cmax (μg/ml) normalised to per mg/kg dosed [1] [µg/mL] | gastrointestinal toxicity DLTs ([2]; human, in vivo) | hypokalaemia and hypomagnesemia DLTs ([2]; in the presence of diarrhoea) | affinity of binding to human HER3 [3] | internalization ([4]; HEK293 cells overexpressing HER3, 120 nM) | internalization ([4]; OvCar8 cells, 120 nM) | extent of binding to human HER3-expressing cells ([5]; 10 μg/ml antibody) | extent of binding to human HER3-expressing cells ([5]; 20 μg/ml antibody) | affinity of binding to human HER3 [6] |
| --- | --- | --- | --- | --- | --- | --- | --- | --- | --- | --- | --- |
| RG7116 | 400 to 2000 mg | 220 to 288 | 24 to 41 | – | – | – | – | – | – | – | – |
| LJM716: anti-HER3 antibody binding domains II and IV, locks HER3 in inactive conformation (Garner et al.) [reference compound] | 10 to 40 mg/kg | 220 to 336 | 19 to 22 | DLTs were reported | DLTs were reported | subpicomolar affinity | significant internalization | Modest to moderate internalization | bind to human HER3-expressing cells to a similar extent | bind to human HER3-expressing cells to a similar extent | dramatically reduced |

Source: patent US20250122303A1, “TREATMENT AND PREVENTION OF CANCER USING HER3 ANTIGEN-BINDING MOLECULES” (Hummingbird Bioscience Pte. Ltd., priority 2021, published 2025)
